Legend:
Assay type in all cases: cell-based
Settings in all cases: positive control
[1] = target: T1, Tie2 receptor (Rattus norvegicus, UniProt A0A8I5ZW61); assay: Tie2 phosphorylation in primary rat glomerular endothelial cells
T1 construct: host or cells: primary rat glomerular endothelial cells
Protocol: Rat primary glomerular endothelial cells (Cell Biologics) were grown in Complete rat endothelial cell medium/w kit (Cell Biologics) in 20% O2, 5% CO2 and 37° C. humidified chamber and split 1:3 once reaching 80-90% confluency. To examine the activation of Tie2 by MPA-Br in rat kidney glomerular endothelial cells, 95-100% confluent cells were stimulated with indicated concentrations of the test agent in serum-containing media for 15 minutes. Human Ang-1 (R&D Systems) was used as positive control. Cell lysates were collected using lysis buffer IC12 (detailed above) recommended in Human phospho-Tie-2 ELISA kit (R&D Systems), tyrosine-phosphorylated Tie2 and total Tie2 were measured using ELISA (Human phospho-Tie2 and total-Tie2 ELISA kits, R&D Systems) with substitution of capture antibody validated for rat Tie2. Mouse anti-Tie2 antibody (BD Pharmingen™) and rabbit TEK polyclonal antibody (MyBioSource) were used as capture antibody in pTie2 and total Tie2 ELISA, respectively. The level of Tie2 phosphorylation for all treatment groups was then normalized to that of the no treatment group (NT, complete rat endothelial cell medium) in each experiment.

[2] = target: T2, Tie2 receptor (Canis lupus familiaris, UniProt A0A8I3P3D4); assay: Tie2 phosphorylation in primary canine aortic endothelial cells
T2 construct: primary cultured endothelial cells derived from canine aorta; host or cells: primary canine aortic endothelial cells
Protocol: Canine primary aortic endothelial cells (Cell Biologics) were grown in Complete canine endothelial cell medium/w kit (Cell Biologics) in 20% O2, 5% CO2 and 37° C. humidified chamber and split 1:3 once reaching 80-90% confluency. Tie2 activation studies performed on primary cynomolgus monkey glomerular endothelial cells were performed according to approaches detailed above for the rat primary glomerular endothelial cell studies.

[3] = tested on: Tie2 receptor; assay: Tie2 phosphorylation in primary cynomolgus monkey glomerular endothelial cells
Protocol: Primary cynomolgus monkey glomerular endothelial cells (Cell Biologics) were cultured according to details provided above for HMVEC^tert. Tie2 activation studies performed on primary cynomolgus monkey glomerular endothelial cells were performed according to approaches detailed above for the rat primary glomerular endothelial cell studies.

T2 sequence (A0A8I3P3D4 entry or part of it): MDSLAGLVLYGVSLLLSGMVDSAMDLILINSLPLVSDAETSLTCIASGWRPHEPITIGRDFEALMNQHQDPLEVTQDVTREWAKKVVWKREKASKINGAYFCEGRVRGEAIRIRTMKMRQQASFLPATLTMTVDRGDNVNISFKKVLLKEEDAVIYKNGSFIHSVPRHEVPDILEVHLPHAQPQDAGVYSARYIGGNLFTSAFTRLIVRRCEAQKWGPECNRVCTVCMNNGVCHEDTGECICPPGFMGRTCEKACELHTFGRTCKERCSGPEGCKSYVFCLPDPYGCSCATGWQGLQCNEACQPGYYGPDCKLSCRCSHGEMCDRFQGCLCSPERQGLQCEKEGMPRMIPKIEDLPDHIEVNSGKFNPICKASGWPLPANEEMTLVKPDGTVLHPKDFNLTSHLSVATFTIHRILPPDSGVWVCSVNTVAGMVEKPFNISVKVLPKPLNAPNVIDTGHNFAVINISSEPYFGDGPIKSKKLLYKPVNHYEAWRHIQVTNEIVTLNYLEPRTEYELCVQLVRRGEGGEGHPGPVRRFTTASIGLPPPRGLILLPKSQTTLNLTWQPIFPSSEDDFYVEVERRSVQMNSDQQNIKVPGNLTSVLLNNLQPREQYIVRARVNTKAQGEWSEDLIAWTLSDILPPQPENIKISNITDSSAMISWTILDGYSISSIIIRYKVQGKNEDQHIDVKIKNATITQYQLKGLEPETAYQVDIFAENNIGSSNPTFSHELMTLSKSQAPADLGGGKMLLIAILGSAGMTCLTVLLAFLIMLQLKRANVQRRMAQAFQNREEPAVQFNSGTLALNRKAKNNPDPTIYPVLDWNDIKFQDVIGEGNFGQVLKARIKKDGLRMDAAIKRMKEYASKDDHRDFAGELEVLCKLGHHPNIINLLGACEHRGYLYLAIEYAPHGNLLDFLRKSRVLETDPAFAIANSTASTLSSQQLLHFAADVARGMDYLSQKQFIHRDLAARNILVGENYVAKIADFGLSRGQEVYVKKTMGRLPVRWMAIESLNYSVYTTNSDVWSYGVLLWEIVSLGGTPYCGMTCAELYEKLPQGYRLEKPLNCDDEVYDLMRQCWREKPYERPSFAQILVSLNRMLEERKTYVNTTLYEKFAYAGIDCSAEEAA
T1 sequence (A0A8I5ZW61 20-1121): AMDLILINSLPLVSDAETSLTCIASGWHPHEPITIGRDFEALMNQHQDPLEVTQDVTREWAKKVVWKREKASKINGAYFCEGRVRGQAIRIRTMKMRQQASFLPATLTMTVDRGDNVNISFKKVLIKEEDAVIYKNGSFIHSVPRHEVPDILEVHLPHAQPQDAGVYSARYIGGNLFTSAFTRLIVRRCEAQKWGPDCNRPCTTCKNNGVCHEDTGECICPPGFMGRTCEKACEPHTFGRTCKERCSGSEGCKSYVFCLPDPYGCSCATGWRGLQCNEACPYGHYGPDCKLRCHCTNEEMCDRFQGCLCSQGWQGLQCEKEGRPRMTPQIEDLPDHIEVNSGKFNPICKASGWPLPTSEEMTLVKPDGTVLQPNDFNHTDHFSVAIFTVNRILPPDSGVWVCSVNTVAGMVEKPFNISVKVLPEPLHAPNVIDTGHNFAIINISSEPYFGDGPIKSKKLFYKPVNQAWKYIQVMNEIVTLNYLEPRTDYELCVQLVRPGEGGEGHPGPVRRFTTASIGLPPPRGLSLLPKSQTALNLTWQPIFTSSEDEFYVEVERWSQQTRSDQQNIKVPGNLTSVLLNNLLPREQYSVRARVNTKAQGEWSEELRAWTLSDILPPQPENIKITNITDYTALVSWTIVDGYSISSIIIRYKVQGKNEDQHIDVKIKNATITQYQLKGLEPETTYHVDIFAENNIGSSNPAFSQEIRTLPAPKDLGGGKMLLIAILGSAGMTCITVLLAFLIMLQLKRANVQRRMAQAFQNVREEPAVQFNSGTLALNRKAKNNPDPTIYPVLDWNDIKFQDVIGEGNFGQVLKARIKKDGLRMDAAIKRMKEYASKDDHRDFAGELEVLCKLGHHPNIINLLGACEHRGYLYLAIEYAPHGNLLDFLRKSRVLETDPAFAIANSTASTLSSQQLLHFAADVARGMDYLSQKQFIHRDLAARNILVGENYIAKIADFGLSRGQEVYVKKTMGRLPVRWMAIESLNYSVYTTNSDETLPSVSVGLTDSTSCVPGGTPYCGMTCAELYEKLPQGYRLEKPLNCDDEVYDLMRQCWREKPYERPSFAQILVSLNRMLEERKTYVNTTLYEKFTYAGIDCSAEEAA

B1: human recombinant Ang1: human recombinant angiopoietin 1 (R&D Systems), positive control for Tie2 and MAPK activation (protein, UniProt Q15389 16-498, looked up)
Angiopoietin-1: HIGCSNQRRSPENSGRRYNRIQHGQCAYTFILPEHDGNCRESTTDQYNTNALQRDAPHVEPDFSSQKLQHLEHVMENYTQWLQKLENYIVENMKSEMAQIQQNAVQNHTATMLEIGTSLLSQTAEQTRKLTDVETQVLNQTSRLEIQLLENSLSTYKLEKQLLQQTNEILKIHEKNSLLEHKILEMEGKHKEELDTLKEEKENLQGLVTRQTYIIQELEKQLNRATTNNSVLQKQQLELMDTVHNLVNLCTKEGVLLKGGKREEEKPFRDCADVYQAGFNKSGIYTIYINNMPEPKKVFCNMDVNGGGWTVIQHREDGSLDFQRGWKEYKMGFGNPSGEYWLGNEFIFAITSQRQYMLRIELMDWEGNRAYSQYDRFHIGNEKQNYRLYLKGHTGTAGKQSSLILHGADFSTKDADNDNCMCKCALMLTGGWWFDACGPSNLNGMFYTAGQNHGKLNGIKWHYFKGPSYSLRSTTMMIRPLDF
In the case of B1, the “Tie2 phosphorylation compared to no treatment” value [1] is reported as “significant increase in baseline Tie2 phosphorylation”, the “Tie2 phosphorylation compared to no treatment” value [2] is reported as “significant increase in baseline Tie2 phosphorylation” and the “Tie2 phosphorylation compared to no treatment” value [3] is reported as “significant increase in baseline Tie2 phosphorylation”.
